# Source: the nanobody polyreactivity screen of Harvey et al. (2022)
# Test: yeast display, Sf9 membrane polyspecificity reagent, FACS + sequencing; frameworks hold sequencing errors
# Summary of the method: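 Galactose-induced (36–48 hours) yeast carrying a synthetic nanobody display library were exposed to 10% biotinylated, detergent-solubilized Sf9 membrane reagent at 4 °C for 1 hour. FACS followed streptavidin microbead enrichment, using low and high (top ~1%) gates for expression (anti-HA) and reagent binding (streptavidin). Colony PCR, MiSeq 2 × 250 sequencing and CDR-length filtering followed. Labels for polyreactivity reflect the gate of origin.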
row,Sequence,polyreactivity (PSR sort gate)
1,QVQLVESGGGLVQAGGSLRLSCAASGGIFYPNVMGWYRQAPGKEREFVAAITSSSGSTYADSVKGRFTISRDNAKNTVYLQMNSLKPEDTAVYYCAAVENWWGIWVRYDYWGQGTQVTVSS,low polyreactivity
2,QVQLVESGGGLVQAGGSLRLSCAASGGIFYSYAMGWYRQAPGKERELVAAITWIGGSTYYADSVKGRFTISRDNAKNTVYLQMNSLKPEDTAVYYCAAEILWGGYDYWGQGTQVTVSS,low polyreactivity
3,QVQLVESGGGLVQAGGSLRLSCAASGGIFYYYAMGWYRQAPGKERELVAAISWSGGSTYYADSVKGRFTISRDNAKNTVYLQMNSLKPEDPAVYYCAPYSDFHYAQLEYDYWGQGTQVTVSS,low polyreactivity
4,QVQLVESGGGLVQAGGSLRLSCAASGGIIDWYVMGWYRQAPGKERELVAAISYNGGATYYADSVKGRFTISRDNAKNTVYLQMNSLKPEDTAVYYCAAGVTWPYRYVWYVYWGQGTQVTVSS,low polyreactivity
5,QVQLVESGGGLVQAGGSLRLSCAASGGIIFYYAMGWYRQAPGKERALVAAISYSGGSTYYADSVKGRFTISRDNAKNTVYLQMNSLKPEDTAVYYCAARTHYFPWPWYVWDYDSWGQGTQVTVSS,low polyreactivity
6,QVQLVESGGGLVQAGGSLRLSCAASGGILGVNAMGWYRQAPGKERELVAAISGRGGRTYYADSVKGRSTISRDNAKNTVYLQLNSLKPEDTAVYYCAVEFYSVARFPLWSYYWGQGTQVTVSS,high polyreactivity
7,QVQLVESGGGLVQAGGSLRLSCAASGGILGWSAMGWSRQAPGKERELVAAIRDSGGSTYYADSVKGRFTIARDNAKKTVYLQMNSLKPEDTAVYYCAAYYIASRSTRYYYWGQGTQVTVSS,high polyreactivity
8,QVQLVESGGGLVQAGGSLRLSCAASGGILNYYAMGWYRQAPGKERELVAAITGIGGSTSYADSVKGRFTISRDNAKNTVYLQMNSLKPEDTAVYYCAAEATSSYYVPDYDYWGQGTQVTVSS,low polyreactivity
9,QVQLVESGGGLVQAGGSLRLSCAASGGILVFYAMGWYRQAPGKERELVAAITKRGTSTYYADSVKGRFTISRDIEKNTVYLQMNSLKPEDTAVYYCAAESIPYYRYDYWGQGSQVTVSS,low polyreactivity
10,QVQLVESGGGLVQAGGSLRLSCAASGGILYYYAMGWYRQAPGKEREMVAAISSGGRTNYADSVKGRFTISRDNAMNTVYLQMNSLNPEDTAVYYCAARGATGFRRYGVTHYYYWGQGTQVNVSS,high polyreactivity
11,QVQLVESGGGLVQAGGSLRLSCAASGGISTAYTMGWYRQEPGKERELVADITRSGGRTYYADSVKGRFTISRDTAKNNVYLQMNSLKPEDTAVYYCARTYYYRFNYWGQGTQVTVSS,high polyreactivity
12,QVQLVESGGGLVQAGGSLRLSCAASGGIVSVYAMGWYRQAPGQERELVASITVSGGSTSYADSVKGRFTISRDNAKNTVYLQMNSLIPEDTAVYYCNTDFGQAHTLSWYEDMDYWGQGTQVTVSS,low polyreactivity
13,QVQLVESGGGLVQAGGSLRLSCAASGGLFIGYAMGWYRQAPGKERELVAAISYSGGSTYYADSVKGRFTISRDNAKNTVYLQMNSLKPEDTAVYYCAAQVDRKYRWFNSWGQGTQVTVSS,high polyreactivity
14,QVQLVESGGGLVQAGGSLRLSCAASGGMGWYRQAPGKERELVATISSVGSTNYADSVKGRFTISRDNAKNTVYLQMNSLKPEDTAVYYCAADYGSDYTKGDYWGQGTQVTVSS,low polyreactivity
15,QVQLVESGGGLVQAGGSLRLSCAASGGSFYPYAMGWSRQAPGKERELLAAISWSGDITYYADSVKGRFTISRDNANNTVYLQMNSLKPEDTAVYYCAAGRVVDKDPSYFREGDYWGQGTQVTVSS,low polyreactivity
16,QVQLVESGGGLVQAGGSLRLSCAASGGTFAGYAMGWYRQAPGKERELVAAISWSSGRTYYADSVKGRFTISRDIAKNSVYLQMNSLKPEETAVYDCTVLRYRGYDYWGQGTQVTVSS,high polyreactivity
17,QVQLVESGGGLVQAGGSLRLSCAASGGTFAIYAMGWYRQAPGKYRELVASINSGGSTNNADSVKGRFTISRDNAKNTVYFQLNLLKPEDTAVYYCNRGYLGYFRYDYWGQGTQVTVSS,high polyreactivity
18,QVQLVESGGGLVQAGGSLRLSCAASGGTFATYAMGWYRQAPGKERELVAAISWSGGSTYYAVSVKGRFTISRDNAKNTVYLQMNSLKPEDTAVYYCAAASRAPSGLYYYWGQGTQVTVSS,high polyreactivity
19,QVQLVESGGGLVQAGGSLRLSCAASGGTFAVNVMGWYRQAPGKERELVAAITSNGGSTYYADSVNGRFTISRDNAKNTVYLQMNSLKPEDTAVYYCAAEGSGWYTGHYYYWGQGTQVTVSS,low polyreactivity
20,QVQLVESGGGLVQAGGSLRLSCAASGGTFAVYAMGWYRQAPGKERELVAAIDSGGRTNYADSVKGRFTISRDNAKNTVYLQMNSLKPEDTAVYYCAADGGGQYVRYDYWGQGTQVTVSS,high polyreactivity
21,QVQLVESGGGLVQAGGSLRLSCAASGGTFAWNAMGWYRQATGKERELVAAISFDGTSTYYADSVKGRFTISRDNAKNTVYLQMNSLKPEDTAVYYCNRVYLGYFRYDYWGQGTQVTVSS,high polyreactivity
22,QVQLVESGGGLVQAGGSLRLSCAASGGTFAYKAMGWYRQAHGKERQLVAAITSSGGSTYYADSVKGRFTISRDNAKNTVYLQMNRLKPEDTAVYYCNRLRNRSLGGYYYWGQGTQVTVSS,high polyreactivity

row,Sequence,polyreactivity (PSR sort gate)
1,QVQLVESGGGLVQAGGSLRLSCAASGGTFDINDMGWYRQAPGKEREFVAAIDWSGGNTYYADSVKGRFIISRDNAKNTVYLQMNSLKPEDTAVYYCNARRKRSYDYWGQGTQVTVSS,low polyreactivity
2,QVQLVESGGGLVQAGGSLRLSCAASGGTFDWNAMGWYRQAPGKERELVASISSSGGSTYYADSVNGRFTISRDNAKNTVYLQMNSLKPEDTAVYYCNAERKIIAYLWWYDYWGQGTQVTVSS,low polyreactivity
3,QVQLVESGGGLVQAGGSLRLSCAASGGTFFKNAMGWYRQAPGKERELVAVIDTISTSTYYADSVKGRFTISRDNAKNTVYLQMNSLKPEDTAVYYCAAEYGPGLTEGLYYYWGQGTQVTVSS,high polyreactivity
4,QVQLVESGGGLVQAGGSLRLSCAASGGTFGAYAMGWYRQAPGKERELVAAINVGGGSTYYADSVKGRFTISRDNAKNTVDLQMNSLKPEATAGYYCAKDLYDGYWRGDYWGQGTQVTVSS,low polyreactivity
5,QVQLVESGGGLVQAGGSLRLSCAASGGTFGTNAMGWYRQAPGKEREFVAAISRSGGSTNYADSVKGRFTISRDNAKNTVYLEMNILKPEDTAVYFCATRVIVVPRGGGYYSWGQGTQVTVSS,high polyreactivity
6,QVQLVESGGGLVQAGGSLRLSCAASGGTFGTNTMGWYRQAPGKERELVAAISRSGGSTYYADSVKGRFTISRDNAKNTVYLQMNCLKPEDTAVYYCNAVPRKYTDEFDYWGQGTQVTVSS,high polyreactivity
7,QVQLVESGGGLVQAGGSLRLSCAASGGTFIYYAMGWYSQAPGKERELVAAISSGGSTYYADSVKGRFTISRDNAKNTVYLQMNSLKPEDTAVYYCAKRRAVQIVDLEYWRQGTQVTVSS,low polyreactivity
8,QVQLVESGGGLVQAGGSLRLSCAASGGTFKRYAMGWYRQAPGKERELVAAISGRGGSTYYADSVKGRFTISRDNAKTTVYLQMNSLKPEDTAVYYCNAGGSPQFYGRSKGDYWGQATQVTVSS,high polyreactivity
9,QVQLVESGGGLVQAGGSLRLSCAASGGTFNRNAMGWYRQAPGKERELVAAISSSGGRTYYADSVKGRFTISRDNAKNTVYLQMNSLKPEDTAVYYCAAGRKGHGGAYDSWAQGTQVTVSS,high polyreactivity
10,QVQLVESGGGLVQAGGSLRLSCAASGGTFNRYAMGWYRQAPGKERELVAAISWSGGSTYYADSVKGRFTISRDTAKNTVYLQMNSLKPEDTAVYYCNARNWYYEGDYWGQGTQVTVSS,high polyreactivity
11,QVQLVESGGGLVQAGGSLRLSCAASGGTFPAYAMGWYRQAPGKERELVASISDDDSTYYADSVKGRFTISRDNAKNTVYLQMNSLKPEDTAVYYCNVEYWYYPSVEYYWTAYDYWGQGTQVTVSS,low polyreactivity
12,QVQLVESGGGLVQAGGSLRLSCAASGGTFPRYAMGWYRQAPGKERELVAAINQSGGRTYYADSVKGRFTISRDNAKNTVYLQMNSLKPEDTADYYCAAGYGWRTSYLSYGYWGQGTQVTVSS,high polyreactivity
13,QVQLVESGGGLVQAGGSLRLSCAASGGTFPRYAMGWYRQAPGKERELVAAITRSGGRTYYADSVKGRFTISRDNAKNTVYLQMNSLKPEDTAVYYCAADAPDYRMDYWGQGTQVTVSS,high polyreactivity
14,QVQLVESGGGLVQAGGSLRLSCAASGGTFQSNAKGWYRQAPGKERELVASITSRGSSTYYADSVKGRFTISRDNAKNTVYLQMNSLKPEDTAVFYCAKGRSLQMYYKGGIKGGYWGQGTQVTVSS,low polyreactivity
15,QVQLVESGGGLVQAGGSLRLSCAASGGTFRKNAMGWYRQAPGKERELVAAITKSGGSTYYADSVKGRFTISRDNAKNTVYLQMNSLKPEDTAVYYCNTYPGSTQPPYDYWGQGTQVTVSS,low polyreactivity
16,QVQLVESGGGLVQAGGSLRLSCAASGGTFRRYAMGWYRQAPGKEREIVAAITISGGNTYYADSVKGRFTISRDNAKNTVYLQMNSLNPEDTAVYYCAADYAYNKYLSVEYWGQGTQVTVSS,low polyreactivity
17,QVQLVESGGGLVQAGGSLRLSCAASGGTFRRYTMGWYRQAPGKERELVAVISRSGGSTYYADSVKGRFTISRDNAKNTVYLQMNSLKPEDTAVYYCAVVYYNGYDWGQGTQVTVSS,high polyreactivity
18,QVQLVESGGGLVQAGGSLRLSCAASGGTFRSNAMGWYRQAPGKERELVAAITRTGRTNYADSVKGRFTISRDNAKNTVYLQMNSLKPEDTAVYYCNAARYVREYDYWGQGTQVTVSS,high polyreactivity
19,QVQLVESGGGLVQAGGSLRLSCAASGGTFRVYAMGWYRQAPGKERELVAAISSGGSTNYADSVKGRFTISRDNAKNTVYLQMNSLKPEDTAVYYCNAKYRYRFARSPIYYYWGQGTQVTVSS,low polyreactivity
20,QVQLVESGGGLVQAGGSLRLSCAASGGTFRVYAMGWYRQAPGKERELVAAITGRGGSTYYADSVKGRFTISRDNAKNTVYLQMNSLKPEDTAVYYCAAQAYWDFGSVARRDSWGQGTQVTVSS,low polyreactivity
21,QVQLVESGGGLVQAGGSLRLSCAASGGTFSDNAMGWYRQAPGKERELVADIDIGGITYYADSVKGRFTISRDNAKNTVYLQMNSLIPEDTAVYYCAAVTTYYYYDVTDYAYEYYYWRQGTQVTVSS,low polyreactivity
